In patent US20040014148A1 (RIGEL PHARMACEUTICALS, published 2004):
No end group written: not given here.

Key:
[1] = target: T1, human chloride intracellular channel 1 (human, UniProt O00299 1-241); assay: cell-based or functional assay
[2] = target: T1, human chloride intracellular channel 1; assay: cell-based or functional assay; remark: listed apart in the source

| Binder | Reporter Ratio (A5T4 reporter line, IL-4 induced germline epsilon transcription) [1] | endogenous epsilon inhibition ratio (TAQMAN quantitative PCR, +IL-4/+Dox to +IL-4/-Dox) [2] | reporter ratio (original library clone screen, A5T4 cells) [2] |
| --- | --- | --- | --- |
| LYTSILLHGATTASMTKPLA (also: expressed as BFP fusion (BFP, alpha-helical linker, peptide) in GAL4 bait vector, fusion sequences not given here) [peptide DL03wt] | 1.5 | 2.11 | 1.32 |
| LYTSAALHGATTASMTKPLA [peptide DL03IL] | 1.16 |  |  |
| LYTSILLHGATTASMTAALA [peptide DL03KP] | 1.77 |  |  |
| LYTSILLHGATTASMTKPAR [peptide DL03LA] | 1.22 |  |  |
